# Reference: paper PMC3599065
# Molecular target: kinesin-1 (endogenous, Neuro2a), Q61768;O88447
# Test: co-immunoprecipitation with anti-GFP antibody, western blot for KHC, quantified
# Conditions: chain shown with the change, lysates of Neuro2a cells expressing GFP-JIP1 constructs, kinesin-1 signal normalized to precipitated GFP-JIP1, n > 3
# kinesin-1 (endogenous, Neuro2a), Q61768;O88447, sequence (chain, as listed by the source, chain 1 of 2): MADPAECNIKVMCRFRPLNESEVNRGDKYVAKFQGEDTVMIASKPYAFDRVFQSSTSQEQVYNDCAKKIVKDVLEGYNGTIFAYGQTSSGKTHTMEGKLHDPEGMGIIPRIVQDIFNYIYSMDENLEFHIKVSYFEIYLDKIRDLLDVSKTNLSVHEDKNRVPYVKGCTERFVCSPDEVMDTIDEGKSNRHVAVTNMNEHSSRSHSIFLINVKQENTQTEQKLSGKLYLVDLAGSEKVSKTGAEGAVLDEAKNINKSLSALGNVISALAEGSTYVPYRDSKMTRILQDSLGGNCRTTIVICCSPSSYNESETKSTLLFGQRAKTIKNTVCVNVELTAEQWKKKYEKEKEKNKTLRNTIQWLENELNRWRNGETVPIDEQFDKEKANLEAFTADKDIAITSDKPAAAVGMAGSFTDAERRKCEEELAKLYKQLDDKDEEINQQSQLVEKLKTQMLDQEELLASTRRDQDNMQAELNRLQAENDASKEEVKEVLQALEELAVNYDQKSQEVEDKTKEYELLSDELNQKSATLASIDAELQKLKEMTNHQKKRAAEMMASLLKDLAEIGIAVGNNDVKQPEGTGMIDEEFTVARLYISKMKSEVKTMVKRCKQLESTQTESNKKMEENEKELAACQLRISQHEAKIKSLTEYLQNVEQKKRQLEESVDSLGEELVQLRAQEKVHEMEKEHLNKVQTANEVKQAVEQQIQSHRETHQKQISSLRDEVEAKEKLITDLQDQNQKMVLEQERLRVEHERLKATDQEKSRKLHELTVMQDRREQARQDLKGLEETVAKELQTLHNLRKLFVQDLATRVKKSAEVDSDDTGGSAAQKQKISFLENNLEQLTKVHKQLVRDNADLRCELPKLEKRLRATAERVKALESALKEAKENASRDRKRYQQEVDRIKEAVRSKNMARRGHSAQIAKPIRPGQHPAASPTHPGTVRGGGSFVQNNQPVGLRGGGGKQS
# kinesin-1 (endogenous, Neuro2a), Q61768;O88447, sequence (chain, as listed by the source, chain 2 of 2): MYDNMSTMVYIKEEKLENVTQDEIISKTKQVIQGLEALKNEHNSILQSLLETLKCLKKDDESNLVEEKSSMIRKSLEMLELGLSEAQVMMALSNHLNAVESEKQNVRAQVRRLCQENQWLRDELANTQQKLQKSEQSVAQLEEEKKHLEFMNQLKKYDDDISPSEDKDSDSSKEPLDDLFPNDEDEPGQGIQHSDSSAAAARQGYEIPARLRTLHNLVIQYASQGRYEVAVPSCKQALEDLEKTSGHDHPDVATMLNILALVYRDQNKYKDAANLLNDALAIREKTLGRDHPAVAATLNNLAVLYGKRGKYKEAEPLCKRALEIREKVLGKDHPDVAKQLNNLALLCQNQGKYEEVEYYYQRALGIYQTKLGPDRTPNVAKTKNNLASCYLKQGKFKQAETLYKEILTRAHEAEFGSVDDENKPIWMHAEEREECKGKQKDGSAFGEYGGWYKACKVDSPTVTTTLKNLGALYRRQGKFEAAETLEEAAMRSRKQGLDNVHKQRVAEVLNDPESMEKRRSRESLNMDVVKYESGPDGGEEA
row,percent of parent,Binder
1,13.4,"GFP-JIP1-WT, Q9WVI9-1 V581A (protein) MAERESGLGGGAASPPAASPFLGLHIASPPNFRLTHDISLEEFEDEDLSEITDECGISLQCKDTLSLRPPRAGLLSAGSSGSAGSRLQAEMLQMDLIDAAGDTPGAEDDEEEEDDELAAQRPGVGPPKAESNQDPAPRSQGQGPGTGSGDTYRPKRPTTLNLFPQVPRSQDTLNNNSLGKKHSWQDRVSRSSSPLKTGEQTPPHEHICLSDELPPQGSPVPTQDRGTSTDSPCRRSAATQMAPPSGPPATAPGGRGHSHRDRIHYQADVRLEATEEIYLTPVQRPPDPAEPTSTFMPPTESRMSVSSDPDPAAYSVTAGRPHPSISEEDEGFDCLSSPERAEPPGGGWRGSLGEPPPPPRASLSSDTSALSYDSVKYTLVVDEHAQLELVSLRPCFGDYSDESDSATVYDNCASASSPYESAIGEEYEEAPQPRPPTCLSEDSTPDEPDVHFSKKFLNVFMSGRSRSSSAESFGLFSCVINGEEHEQTHRAIFRFVPRHEDELELEVDDPLLVELQAEDYWYEAYNMRTGARGVFPAYYAIEVTKEPEHMAALAKNSDWIDQFRVKFLGSVQVPYHKGNDALCAAMQKIATTRRLTVHFNPPSSCVLEISVRGVKIGVKADDALEAKGNKCSHFFQLKNISFCGYHPKNNKYFGFITKHPADHRFACHVFVSEDSTKALAESVGRAFQQFYKQFVEYTCPTEDIYLE"
2,25.4,"GFP-JIP1-WT, Q9WVI9-1 F687V (protein) MAERESGLGGGAASPPAASPFLGLHIASPPNFRLTHDISLEEFEDEDLSEITDECGISLQCKDTLSLRPPRAGLLSAGSSGSAGSRLQAEMLQMDLIDAAGDTPGAEDDEEEEDDELAAQRPGVGPPKAESNQDPAPRSQGQGPGTGSGDTYRPKRPTTLNLFPQVPRSQDTLNNNSLGKKHSWQDRVSRSSSPLKTGEQTPPHEHICLSDELPPQGSPVPTQDRGTSTDSPCRRSAATQMAPPSGPPATAPGGRGHSHRDRIHYQADVRLEATEEIYLTPVQRPPDPAEPTSTFMPPTESRMSVSSDPDPAAYSVTAGRPHPSISEEDEGFDCLSSPERAEPPGGGWRGSLGEPPPPPRASLSSDTSALSYDSVKYTLVVDEHAQLELVSLRPCFGDYSDESDSATVYDNCASASSPYESAIGEEYEEAPQPRPPTCLSEDSTPDEPDVHFSKKFLNVFMSGRSRSSSAESFGLFSCVINGEEHEQTHRAIFRFVPRHEDELELEVDDPLLVELQAEDYWYEAYNMRTGARGVFPAYYAIEVTKEPEHMAALAKNSDWIDQFRVKFLGSVQVPYHKGNDVLCAAMQKIATTRRLTVHFNPPSSCVLEISVRGVKIGVKADDALEAKGNKCSHFFQLKNISFCGYHPKNNKYFGFITKHPADHRFACHVFVSEDSTKALAESVGRAVQQFYKQFVEYTCPTEDIYLE"
3,3.7,"GFP-JIP1-WT, Q9WVI9-1 F642V (protein) MAERESGLGGGAASPPAASPFLGLHIASPPNFRLTHDISLEEFEDEDLSEITDECGISLQCKDTLSLRPPRAGLLSAGSSGSAGSRLQAEMLQMDLIDAAGDTPGAEDDEEEEDDELAAQRPGVGPPKAESNQDPAPRSQGQGPGTGSGDTYRPKRPTTLNLFPQVPRSQDTLNNNSLGKKHSWQDRVSRSSSPLKTGEQTPPHEHICLSDELPPQGSPVPTQDRGTSTDSPCRRSAATQMAPPSGPPATAPGGRGHSHRDRIHYQADVRLEATEEIYLTPVQRPPDPAEPTSTFMPPTESRMSVSSDPDPAAYSVTAGRPHPSISEEDEGFDCLSSPERAEPPGGGWRGSLGEPPPPPRASLSSDTSALSYDSVKYTLVVDEHAQLELVSLRPCFGDYSDESDSATVYDNCASASSPYESAIGEEYEEAPQPRPPTCLSEDSTPDEPDVHFSKKFLNVFMSGRSRSSSAESFGLFSCVINGEEHEQTHRAIFRFVPRHEDELELEVDDPLLVELQAEDYWYEAYNMRTGARGVFPAYYAIEVTKEPEHMAALAKNSDWIDQFRVKFLGSVQVPYHKGNDVLCAAMQKIATTRRLTVHFNPPSSCVLEISVRGVKIGVKADDALEAKGNKCSHFFQLKNISVCGYHPKNNKYFGFITKHPADHRFACHVFVSEDSTKALAESVGRAFQQFYKQFVEYTCPTEDIYLE"
